Assay results reported in PMC7020397 (Toxins, 2020).
Ends that are not written are not given here.

What was measured:
[1] = target: muscle-type Torpedo nAChR (Torpedo); experiment: competition with α-bungarotoxin
human neuronal α7 nAChR = human neuronal α7 nAChR (human, UniProt P36544 23-502); experiment: competition with α-bungarotoxin
human neuronal α7 nAChR, sequence (P36544 23-502): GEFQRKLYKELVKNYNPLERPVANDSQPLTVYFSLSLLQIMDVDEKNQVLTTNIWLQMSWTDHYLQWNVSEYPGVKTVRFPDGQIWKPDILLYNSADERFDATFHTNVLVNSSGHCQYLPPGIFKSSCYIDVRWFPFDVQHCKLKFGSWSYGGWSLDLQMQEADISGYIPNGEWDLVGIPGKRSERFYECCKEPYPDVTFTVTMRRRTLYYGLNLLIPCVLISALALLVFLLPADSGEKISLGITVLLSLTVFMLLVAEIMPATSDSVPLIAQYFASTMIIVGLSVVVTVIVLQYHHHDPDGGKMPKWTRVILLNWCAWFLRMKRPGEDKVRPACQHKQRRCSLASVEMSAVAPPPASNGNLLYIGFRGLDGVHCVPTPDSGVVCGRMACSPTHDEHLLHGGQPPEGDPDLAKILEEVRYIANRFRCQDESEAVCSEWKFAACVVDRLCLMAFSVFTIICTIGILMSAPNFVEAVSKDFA

muscle-type Torpedo nAChR (Torpedo), sequence (P02710 25-461 limits assumed, chain 1 of 4): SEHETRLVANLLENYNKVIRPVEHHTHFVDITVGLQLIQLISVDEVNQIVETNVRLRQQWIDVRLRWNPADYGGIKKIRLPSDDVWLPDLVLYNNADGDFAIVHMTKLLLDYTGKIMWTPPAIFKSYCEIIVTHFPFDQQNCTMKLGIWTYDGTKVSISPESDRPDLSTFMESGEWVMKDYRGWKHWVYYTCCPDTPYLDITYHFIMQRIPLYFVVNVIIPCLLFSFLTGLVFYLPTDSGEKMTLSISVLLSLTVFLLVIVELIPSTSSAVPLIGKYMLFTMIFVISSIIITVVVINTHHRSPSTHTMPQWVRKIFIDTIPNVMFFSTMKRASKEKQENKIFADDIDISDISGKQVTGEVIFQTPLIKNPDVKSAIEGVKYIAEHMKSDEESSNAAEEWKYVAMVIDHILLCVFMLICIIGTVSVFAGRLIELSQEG
muscle-type Torpedo nAChR (Torpedo), sequence (P02712 25-493 limits assumed, chain 2 of 4, further chain): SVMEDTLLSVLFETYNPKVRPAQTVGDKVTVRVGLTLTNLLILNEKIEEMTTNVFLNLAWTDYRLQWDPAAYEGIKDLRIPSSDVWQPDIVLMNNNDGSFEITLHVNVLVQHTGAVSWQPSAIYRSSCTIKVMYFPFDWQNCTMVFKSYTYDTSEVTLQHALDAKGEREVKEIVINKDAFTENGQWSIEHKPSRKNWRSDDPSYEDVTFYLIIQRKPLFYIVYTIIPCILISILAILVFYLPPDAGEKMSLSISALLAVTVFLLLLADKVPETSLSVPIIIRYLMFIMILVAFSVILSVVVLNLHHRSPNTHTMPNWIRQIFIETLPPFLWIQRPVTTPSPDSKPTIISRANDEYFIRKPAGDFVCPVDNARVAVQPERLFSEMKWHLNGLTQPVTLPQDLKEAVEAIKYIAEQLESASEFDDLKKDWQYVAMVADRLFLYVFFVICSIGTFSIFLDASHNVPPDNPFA
muscle-type Torpedo nAChR (Torpedo), sequence (P02714 18-506 limits assumed, chain 3 of 4, further chain): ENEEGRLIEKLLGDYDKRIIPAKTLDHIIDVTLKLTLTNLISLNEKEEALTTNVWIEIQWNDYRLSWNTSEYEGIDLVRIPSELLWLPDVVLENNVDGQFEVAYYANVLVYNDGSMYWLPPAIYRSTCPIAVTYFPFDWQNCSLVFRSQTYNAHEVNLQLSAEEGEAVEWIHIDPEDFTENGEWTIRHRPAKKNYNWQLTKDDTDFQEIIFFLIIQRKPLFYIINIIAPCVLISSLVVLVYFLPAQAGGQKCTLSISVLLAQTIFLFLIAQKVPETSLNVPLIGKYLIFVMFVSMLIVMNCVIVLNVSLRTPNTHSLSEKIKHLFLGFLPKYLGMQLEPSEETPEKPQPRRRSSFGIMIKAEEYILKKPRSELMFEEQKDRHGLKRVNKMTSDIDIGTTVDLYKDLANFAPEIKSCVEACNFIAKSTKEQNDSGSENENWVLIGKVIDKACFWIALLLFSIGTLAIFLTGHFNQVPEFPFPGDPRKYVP
muscle-type Torpedo nAChR (Torpedo), sequence (P02718 22-522 limits assumed, chain 4 of 4, further chain): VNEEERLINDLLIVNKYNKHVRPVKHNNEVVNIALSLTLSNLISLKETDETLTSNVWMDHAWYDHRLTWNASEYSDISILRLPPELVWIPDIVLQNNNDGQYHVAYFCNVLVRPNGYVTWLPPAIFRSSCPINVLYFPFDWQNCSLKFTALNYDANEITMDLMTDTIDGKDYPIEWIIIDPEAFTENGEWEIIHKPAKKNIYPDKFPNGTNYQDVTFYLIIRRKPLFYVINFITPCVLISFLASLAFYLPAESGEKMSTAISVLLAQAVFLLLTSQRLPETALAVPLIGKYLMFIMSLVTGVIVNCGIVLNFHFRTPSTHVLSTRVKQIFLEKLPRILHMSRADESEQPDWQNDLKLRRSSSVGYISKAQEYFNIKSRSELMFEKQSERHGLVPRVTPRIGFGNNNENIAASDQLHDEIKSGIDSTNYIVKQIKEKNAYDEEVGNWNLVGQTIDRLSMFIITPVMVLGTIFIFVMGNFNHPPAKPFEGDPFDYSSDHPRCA
OSK-1, sequence (P55896 whole entry): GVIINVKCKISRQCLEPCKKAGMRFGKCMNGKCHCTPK

Molecule	IC50 [1] [nM]	IC50 (human neuronal α7 nAChR) [µM]
spinoxin (from UniProt P84094 1-34) (peptide)	500	–
OSK-1 (from UniProt P55896 1-38) (peptide)	500	–
DNWWPKPPHQGPRPPRPRPKP (not fully specified, source: synthetic peptide) [azemiopsin]	180	22
